# Results taken from patent US20250076311A1 (Chugai, published 2025).
# T1: Human latent myostatin (human, UniProt O14793 25-266; O14793 267-375)
# T1 construct: Biotinylated in the ELISAs; also called human myostatin latent form
# T1 sequence 1: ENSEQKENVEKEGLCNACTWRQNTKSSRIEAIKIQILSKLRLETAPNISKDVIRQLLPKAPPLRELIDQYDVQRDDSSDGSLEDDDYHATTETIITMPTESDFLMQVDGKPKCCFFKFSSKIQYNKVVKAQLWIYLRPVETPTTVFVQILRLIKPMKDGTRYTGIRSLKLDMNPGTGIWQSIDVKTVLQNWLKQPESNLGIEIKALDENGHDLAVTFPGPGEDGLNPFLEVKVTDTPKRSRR
# T1 sequence 2: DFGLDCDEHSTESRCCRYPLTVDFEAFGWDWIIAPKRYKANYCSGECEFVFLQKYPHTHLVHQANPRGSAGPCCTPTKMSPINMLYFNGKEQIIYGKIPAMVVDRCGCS
# Assays:
# [1] = target: T1, Human latent myostatin; experiment: SPR affinity condition (capture 18.5 RU), pH7.4, 37C
# Description: (§1) The kinetic parameters of anti-latent myostatin antibodies against human, cynomolgus monkey (cyno), and mouse latent myostatin were assessed at 37° C. at pH7.4 using a BIACORE® T200 instrument (GE Healthcare). ProA/G (Pierce) was immobilized onto all flow cells of a CM4 chip using amine coupling kit (GE Healthcare). Anti-latent myostatin antibody and analytes were prepared in ACES pH7.4 (20 mM ACES, 150 mM NaCl, 1.2 mM CaCl₂), 0.05% TWEEN® 20, 0.005% NaN3). […] The sensor surface was regenerated with 25 mM NaOH. Kinetic parameters were determined by processing and fitting the data to a 1:1 binding model using BIACORE® T200 Evaluation software, version 2.0 (GE Healthcare).
# (§2) All experimental settings were the same as in Example 7, except that measurements were also performed in ACES pH5.8 buffer in addition to ACES pH7.4 condition. Some antibodies were only measured against human latent myostatin. Antibody capture level was aimed at 185 RU and 18.5 RU, for avidity and affinity assay, respectively. Kinetic parameters were determined using 1:1 Binding fitting using BIACORE® T200 Evaluation software, version 2.0 (GE Healthcare).
# [2] = target: T1, Human latent myostatin; experiment: SPR avidity condition (capture 185 RU), pH5.8, 37C; pH 5.8
# Description: as §1, §2
binder,measurement,setting,value
"MS_M103205H707-SG1/M103202L802-SK1 (antibody, human IgG1, kappa, V domains shown, also called MS1032LO04-SG1) VH: QVTLKESGPVLVKPTETLTLTCTVSGIDLSHYDISWVRQAPGKGLEWVGIISYAGSTYYASWAKGRLTISKDTSKNQVVLTMTNMDPVDTATYYCARGVPAYSHGGDLWGQGTLVTVSS VL: DIVMTQSPATLSLSPGERATLSCTSSQSVYHDNWLSWFQQKPGQPPKLLIYWASTLAYGVPSRFSGSGSGTDFTLTISSLQPEDAATYYCAGGYGGGLYAFGQGTKVEIKR",kon,[1],1.54e+06 M⁻¹ s⁻¹
same,kon,[2],781000 M⁻¹ s⁻¹
